Laboratory results reported in the nanobody polyreactivity screen of Harvey et al. (2022).

assay: yeast display, Sf9 membrane polyspecificity reagent, FACS + sequencing; frameworks hold sequencing errors
In short: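 A nanobody's polyreactivity label depends on the gate it was sorted from. Yeast display cells were stained with 10% biotinylated, detergent-solubilized Sf9 membrane reagent for 1 hour at 4 °C, enriched on streptavidin microbeads and sorted by FACS. The low and high (top ~1%) gates were set on anti-HA fluorescence for expression and streptavidin fluorescence for reagent binding.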

Sequence	polyreactivity (PSR sort gate)
QVQLVESGGGLVQAGGSLRLSCAASGRIFPYYTRGWYRQAPGKERELVATITTGGSTNYADSVKGRFTISRDNAENTVYLQMNSLKPEDTAVYYCAKREASSRWPYDYWGQGTQVTVSS	low polyreactivity
QVQLVESGGGLVQAGGSLRLSCAASGRIFQAYAMGWYRQAPGKERELVASISYRGGITYYADSVKGRFTISRDNAKNTVYLQMNSLKPEDTEVYYCAAGRKGSMYYWGQGTQVTVSW	high polyreactivity
QVQLVESGGGLVQAGGSLRLSCAASGRIFQGNAMGWYRQAPGKERELVAAIDWSGGGSTYADSVKGRFTISRDNAKNTVYLQMNSLKPEDTAVYYCARDVVWGEDYWGQGTQVTVSS	low polyreactivity
QVQLVESGGGLVQAGGSLRLSCAASGRIFQGYAMGWYRQAPGKERELVAAISVRGGSTFYADSVKGRFTISRDNAKNTVYLQMNSLKPEDTAVYYCATRTRYRGGYWGQGTQVTVSS	high polyreactivity
QVQLVESGGGLVQAGGSLRLSCAASGRIFQGYAMGWYRQAPGKERELVAAITLSGGSTYYADSVKGRFTISRDHAKNTVYLQMNSLKPEDTAVYYCNAYYPDEPSLYDYWGQVTQVTVSS	low polyreactivity
QVQLVESGGGLVQAGGSLRLSCAASGRIFQKNTMGWYRQAPGKERELVAAINWNGGRTYYADSVKGRFTISRDNAKNTVYLQMNSLKPEDTAVYYCAKDGYWDFDYWGQGTQVTVSS	low polyreactivity
QVQLVESGGGLVQAGGSLRLSCAASGRIFQKYAMVWYRQAPGKERELVAAISSGDSTYADSVKGRFSISRDNAKNTVYLQMNSLKPEDTAVYYCAGDLYDPWWYSYMGEYEYWGQGTQVTVSS	low polyreactivity
QVQLVESGGGLVQAGGSLRLSCAASGRIFQPNVMGWYRQAPGIERELVAAIRSGSSTYYADSVKGRFTISRDNAKNTVYLQMNSLKPEDTAVDYCATRYRKQYKPYEYWGQGTQVTVSA	high polyreactivity
QVQLVESGGGLVQAGGSLRLSCAASGRIFQSNAMGWNIQAPGKERELVAASNSGDSTYYADSVKGRFTISRDNAINTVYLQMNSLQPEDTAVYYSAADAVYQYYSYYYWGQGTQVTVSS	low polyreactivity
QVQLVESGGGLVQAGGSLRLSCAASGRIFQTYAMGWYRQAPGKERELVASISWSGGSTYYADSVKGRFTILRDNAKNTVYLQMNSLKPEDTAVYYCAAVYYSTDYYFWYDYWGQGTQVTVSS	low polyreactivity
QVQLVESGGGLVQAGGSLRLSCAASGRIFQTYDMGWYRQAPGKERELVARIRLSGGSTYYADSVKGRFTISRDNAKNTVYLQMNSLKPEETAVYYCAARYSRALFTDPYYYWGQGTQVTVSS	high polyreactivity
QVQLVESGGGLVQAGGSLRLSCAASGRIFQWYAMGWYRQAPGKERELVAAISWRDGRTYYADSVKGRFTISRDNAKNNVYLQMNSLKPEDTAVYYCAVRTFGRYGYWGQGTQVTVSS	high polyreactivity
QVQLVESGGGLVQAGGSLRLSCAASGRIFQYDVMGWYRQAPGKERELVARITYNGGGTYYADSVKGRFTISRDTAKNTVYLQMNSLKPEDTAVYYCNARYPWRDWEDDYWGQGTQVTVSS	low polyreactivity
QVQLVESGGGLVQAGGSLRLSCAASGRIFQYNTMGWYRQAPGKERELVAGISSGGSTNYADSVKGRFTISRDNAKNTVYLQMNSLKPEDTAVYYCAARAKRYNVRFDYWGQGTQVTVSS	high polyreactivity
QVQLVESGGGLVQAGGSLRLSCAASGRIFQYYAMGWYRQAPGKERELVAAIDQSGDTTYYADSVKGRFTISRDNAKNTVYLQMNSLKPEDTAVYYCAAGYDWAYHWVPQWMYYWGQGTQVTVSS	low polyreactivity
QVQLVESGGGLVQAGGSLRLSCAASGRIFQYYAMGWYRQAPGKERELVASISGRGGRTYYADSVKGRFTISRDNAKNTVYLQMNSLKPEDTAVYYCNAVFSTIRYIRSYNYWGQGTQVTVSS	high polyreactivity

Sequence	polyreactivity (PSR sort gate)
QVQLVESGGGLVQAGGSLRLSCAASGRIFQYYDMGWYRQAPGKERELVAAITFSGGSTYYADSVKGRFTISRDNAKNTVYLLMNSLKPEDTAVYYCARGYWVYYPDGDYWGQGTQVTVSS	low polyreactivity
QVQLVESGGGLVQAGGSLRLSCAASGRIFQYYTMGWYRQAPGKERELVAAITYSGGDTRYADSVKGRFTISRDNAKNTVYLQMNSLKPEDTAVYYCAAHYFHQYQYGVWTYGYWGHGTQVTVSS	low polyreactivity
QVQLVESGGGLVQAGGSLRLSCAASGRIFQYYVMGWYRKAPGKERELVAAITRRGTNTYYADSVKGRFTISRDNAMNTVYLQMNSLKPEDTAVYYCAAEAQTKWWDYYYWGQGTQVTVSS	high polyreactivity
QVQLVESGGGLVQAGGSLRLSCAASGRIFRAYAMGWYRQAPGKERELVAAIRGRGGSTYADSVKGRFTISRDNAKNTVYLQMNSLKPEDTAVYYCAAGYYRYAWPYYGGRDYWGQGTQVTVSS	high polyreactivity
QVQLVESGGGLVQAGGSLRLSCAASGRIFRAYAMGWYRQAPGKERELVAAISSGGITSYADSVKGRFTISRDNAKNTVYLQMNSLKPEDTAVDYCAALVYPYWGGSMYYWGQGTQVTVSS	high polyreactivity
QVQLVESGGGLVQAGGSLRLSCAASGRIFRDNAMGWYRQAPGKEREFVARITISTGTTYYADSVKGRFTISRDNAKNTVYLQMNSLKPEDTAVYYCAALYTVSYLTSPVSYRYDYWGQGTQVTVSS	low polyreactivity
QVQLVESGGGLVQAGGSLRLSCAASGRIFRDYAMGWYRLAPGKERELVAAITLSGTTTYYADSVKGRFTISRDNAKNTVYVQMNSLKPEDTAVYYCNAPRYRYRPHEGDYWGQGTQVTVSS	low polyreactivity
QVQLVESGGGLVQAGGSLRLSCAASGRIFRDYAMGWYRQAPGKERELVAAITRSGDTTYYADSVKGRFTISRDNAKNTVYLQMNSLKPEDTAVYYCAARYVSRYYVYRGFEYWGQGTQVTVSS	high polyreactivity
QVQLVESGGGLVQAGGSLRLSCAASGRIFRFYAMGWYRKAPGKERELVAAISSSGVRTYYADSVKGRFTISRDNAKNTVYLQMNSLKPEDTAVYYCAKRTVWWSNWHYYPPTYNYWGQGTQVTVSS	high polyreactivity
QVQLVESGGGLVQAGGSLRLSCAASGRIFRFYAMGWYRPAPGKERELVAAISWNGGRTYYAVSVKGRFTISRDNAKNTVYLQMNSLKPEVTAVYYCATEFYYHWYSPFDYWGQGTQVTVSS	high polyreactivity
QVQLVESGGGLVQAGGSLRLSCAASGRIFRGNGMGWYRQAPGKERELVAAINYSGASTYYADSVKGRFTISRDNAKNTVYLQMNSLKPEDTAVYYCARAWFYRGGEGWLESYIVSGDYWGQGTQVTVSS	low polyreactivity
QVQLVESGGGLVQAGGSLRLSCAASGRIFRGYAMGWSRQAPGKERELVAAITSRGGSTYADSVKGRFTISRDNAKNTVYLQMNSLKPEDTAVYYCNAKEGSRYRKYDYWGQGTQVTVSS	low polyreactivity
QVQLVESGGGLVQAGGSLRLSCAASGRIFRGYAMGWYRPAPGKERELVAAIDTDTGITYYADSVKGRFTISRVNAKNTVNLQMNSLKPEDTAVYYCAAETYYAVSTGYYFDYWGQGTQVTVSS	high polyreactivity
QVQLVESGGGLVQAGGSLRLSCAASGRIFRGYAMGWYRQAPGKERELVAAISASGGSTYYADSVKGRFTISRDNAKNTVYLQMNSLKPEDTAVYYCATTIFYTYYGLYDYWGQGTQVTVSS	high polyreactivity
QVQLVESGGGLVQAGGSLRLSCAASGRIFRGYAMGWYRQAPGKERELVAAITSRGGSTYADSVKGRFTISRDNAKNTVYLQMNSLKPEDTAVYYCNAGYRAYSSKLVFRGYPRYDYWGQGTQVTVSS	low polyreactivity
